Assay results: PMC9881875 (bioRxiv, 2023)

How the values were obtained:
Test in all cases: fluorescence polarisation
NHERF2 PDZ2 = NHERF2 PDZ2 (UniProt Q15599 142-280)
SNX27 PDZ = SNX27 PDZ (UniProt Q96L92 41-135)
DLG1 PDZ1 = DLG1 PDZ1 (UniProt Q12959 220-317)
MAGI1 PDZ2 = MAGI1 PDZ2 (UniProt Q96QZ7 471-554)
MAGI1 PDZ2, sequence (Q96QZ7 471-554): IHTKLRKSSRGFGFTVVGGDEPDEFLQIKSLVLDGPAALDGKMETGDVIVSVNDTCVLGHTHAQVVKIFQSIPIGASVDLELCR

DLG1 PDZ1, sequence (Q12959 220-317): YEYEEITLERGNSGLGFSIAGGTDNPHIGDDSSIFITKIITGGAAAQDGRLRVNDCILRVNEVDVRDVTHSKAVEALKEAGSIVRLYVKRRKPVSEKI
NHERF2 PDZ2, sequence (Q15599 142-280): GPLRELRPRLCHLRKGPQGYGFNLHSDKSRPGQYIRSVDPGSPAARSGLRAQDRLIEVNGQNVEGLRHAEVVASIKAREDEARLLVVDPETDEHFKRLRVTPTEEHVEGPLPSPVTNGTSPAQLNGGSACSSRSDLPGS

B1: _(SSRT)CFTR peptide (peptide)
peptide: SSRTVQDTRL
In the case of B1, the Ki (NHERF2 PDZ2) is reported as 1.7 ± 0.4 µM, the Ki (SNX27 PDZ) is reported as 0.46 ± 0.11 µM and the Ki (DLG1 PDZ1) is reported as > 1000 µM. The IC50 (MAGI1 PDZ2) was > 1000 µM.
